Assay results taken from patent US20050054043A1.

Target: transferrin receptor on HeLa S3 cells (human) (UniProt P02786)
Test: radioiodinated transferrin on HeLa S3 cells, no competitor

Chain of transferrin receptor on HeLa S3 cells (human) (P02786 whole entry): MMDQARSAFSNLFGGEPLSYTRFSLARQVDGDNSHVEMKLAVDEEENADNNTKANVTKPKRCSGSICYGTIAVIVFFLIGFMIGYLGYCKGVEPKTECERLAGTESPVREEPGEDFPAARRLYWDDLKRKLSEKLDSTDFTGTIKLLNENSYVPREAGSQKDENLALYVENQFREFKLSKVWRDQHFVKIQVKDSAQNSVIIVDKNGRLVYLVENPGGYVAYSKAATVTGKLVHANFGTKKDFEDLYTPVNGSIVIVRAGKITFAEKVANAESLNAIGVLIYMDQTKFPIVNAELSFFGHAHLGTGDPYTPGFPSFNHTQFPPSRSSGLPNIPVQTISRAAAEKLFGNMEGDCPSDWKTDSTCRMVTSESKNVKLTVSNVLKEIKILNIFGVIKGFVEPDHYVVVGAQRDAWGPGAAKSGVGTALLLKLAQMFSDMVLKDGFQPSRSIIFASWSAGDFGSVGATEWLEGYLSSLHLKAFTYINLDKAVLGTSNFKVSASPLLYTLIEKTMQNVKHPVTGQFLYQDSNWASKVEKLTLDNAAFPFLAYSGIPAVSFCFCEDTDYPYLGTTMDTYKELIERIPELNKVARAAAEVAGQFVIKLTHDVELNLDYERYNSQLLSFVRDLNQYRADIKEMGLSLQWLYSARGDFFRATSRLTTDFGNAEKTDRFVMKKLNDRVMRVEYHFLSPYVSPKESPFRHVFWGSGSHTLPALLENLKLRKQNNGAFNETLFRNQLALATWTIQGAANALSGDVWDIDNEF

- TF/cell in the absence of competitor: 328000 TF/cell
- cpm bound in the absence of competitor: 7480 cpm
Substance: radiolabeled diferric transferrin
